# Assay results reported in paper doi:10.1101/509299 (bioRxiv, 2019).
# Molecular target: integrin αIIbβ3 on K562 cells stably expressing recombinant αIIbβ3 (αIIbβ3-K562) (UniProt P08514 32-1039; P05106 27-788)
# Assay: flow cytometry on cells
binder,measurement,value
RGDWPC (homoarginine (Har) at position 2) [Eptifibatide],IC50,73.2 nM
